Reference: patent CN110156890A (UNIV SUZHOU, dated 2019)

Experiments:
[1] = molecular target: T1, Sema7A_truncated抗原蛋白 (mouse, UniProt Q9QUR8 59-219); assay: ELISA, 1 ug antigen coated, antibody dilution series
T1 construct: Truncated part of mouse Sema7A chosen for antigenicity, expressed in E. coli from pET28a; also called Sema7A-His; not shown: His tag from pET28a (Sema7A-His)
T1 sequence: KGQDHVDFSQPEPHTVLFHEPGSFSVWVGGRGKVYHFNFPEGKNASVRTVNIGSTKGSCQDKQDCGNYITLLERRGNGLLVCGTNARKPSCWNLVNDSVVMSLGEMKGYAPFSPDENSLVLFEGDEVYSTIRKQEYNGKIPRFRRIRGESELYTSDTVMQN

[2] = molecular target: T2, 小鼠Sema7A蛋白 (mouse, UniProt Q9QUR8 45-646); assay: western blot of mouse lung tissue
T2 construct: Endogenous protein of mouse lung tissue, denatured on a western blot; also called Semaphorin7A
T2 sequence (looked up): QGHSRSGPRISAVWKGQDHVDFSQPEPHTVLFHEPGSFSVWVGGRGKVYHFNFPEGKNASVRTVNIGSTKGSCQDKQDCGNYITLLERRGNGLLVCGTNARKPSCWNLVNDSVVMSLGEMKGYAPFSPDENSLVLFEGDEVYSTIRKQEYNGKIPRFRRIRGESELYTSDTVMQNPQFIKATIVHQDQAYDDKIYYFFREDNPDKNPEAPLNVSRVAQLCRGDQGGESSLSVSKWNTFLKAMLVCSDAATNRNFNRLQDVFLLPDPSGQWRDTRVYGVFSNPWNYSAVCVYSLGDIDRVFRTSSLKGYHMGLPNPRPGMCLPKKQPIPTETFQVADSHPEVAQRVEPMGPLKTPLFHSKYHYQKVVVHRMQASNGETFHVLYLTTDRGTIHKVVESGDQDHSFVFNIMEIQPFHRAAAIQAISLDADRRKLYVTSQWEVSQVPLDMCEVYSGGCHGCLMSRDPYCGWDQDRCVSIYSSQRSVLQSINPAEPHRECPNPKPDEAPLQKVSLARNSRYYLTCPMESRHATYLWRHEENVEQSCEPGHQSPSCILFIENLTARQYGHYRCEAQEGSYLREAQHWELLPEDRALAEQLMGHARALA

B1: Semaphorin7A单克隆抗体2567-1 (antibody, V domains shown)
VH: QVQLQQSGAELVKPGASVKLSCKASGYTFTSYYMYWVKQRPGQGLEWIGEINPSNGDTNFNEKFKSKATLTVDKSSSTAYMQLSSLTSEDSAVYYCTTPARATFAYWGQGTLVTVSA
VL: DVVMTQTPLSLPVSLGDQASISCRSSQSLVHSNGNTYLHWYLQKPGQSPKLLIYKVSNRFSGVPDRFSGSGSGTDFTLKISRVEAEDLGVYFCSQSTHVPYTFGGGTKLEIK
notes: also called Sema7A抗体2567-1
binding result [1]: binds
binding result [2]: binds
